Measured values: patent publication US20240083958A1, “G PROTEIN PEPTIDOMIMETICS” (VRIJE UNIVERSITEIT BRUSSEL, priority 2020, published 2024)
Bridge positions count the residues as written; N and C are the ends. Square brackets hold non-standard residues; d marks the D form. Primed or numbered codes have the meaning given here. Azk = residue with azidated side chain, clicked to Pra; Pra′ = residue with alkynyl side chain, clicked to Azk; Lys(N3) = [N-]=[N+]=NCCCC[C@H](N)C(=O)O; 1Nal = N[C@@H](Cc1cccc2ccccc12)C(=O)O; 2Nal = N[C@@H](Cc1ccc2ccccc2c1)C(=O)O; Aad = N[C@@H](CCCC(=O)O)C(=O)O; Cha = N[C@@H](CC1CCCCC1)C(=O)O; Pra = C#CC[C@H](N)C(=O)O

Assays:
human β2AR [1] = target: T1, human β2AR (Homo sapiens, UniProt P07550, N187E); test: Radioligand binding assay (RLA) with human β2AR, 3H-dihydroalprenolol (DHA) as radioligand, isoproterenol (agonist) as cold competitor, in presence and absence of the peptidomimetic; parameters: key to Shift: ratio IC50 basal (no peptide) / IC50 with peptidomimetic
T1 construct: made in house; host or cells: Sf9 insect cells (Bac-to-Bac baculovirus); membrane extracts
Experimental: β2AR365N constructs were expressed in Sf9 insect cells, using the Bac-to-Bac® Baculovirus Expression System. The membrane extracts were prepared from cells that expressed β2AR. Subsequently, the cell pellet was resuspended in a buffer (1 ml buffer/2×1E7 cells) containing 75 mM Tris pH 7.4, 12.5 mM MgCl2, 1 mM EDTA, Leupeptin and PMSF as protease inhibitors. Afterwards the cells were vortexed and homogenized in ice using a small volume Ultraturrax (6×10 sec). The cells were then centrifuged for 15 min at 16000 rcf, in a pre-cooled centrifuge (4° C.) and resuspended in the previous buffer containing 10% sucrose. Finally, the membranes were again homogenized in ice with the small volume Ultraturrax (3×10 sec). The protein concentration in the membrane fragments was determined using a Pierce BCA Protein Assay Kit and the protein concentration was extrapolated from the Bovine Serum Albumine standard curve.
To perform the radioligand competition binding assays, 96-well plates were used. For the assays on β2AR, the membrane extracts as well as the peptides were prepared in a binding buffer (75 mM Tris pH 7.4, 12.5 mM MgCl2, 1 mM EDTA, 0.2% BSA). The ligand (isoproterenol) and radioligand ([^3H]-dihydroalprenolol) were dissolved in ligand buffer (75 mM Tris pH 7.4, 12.5 mM MgCl2, 1 mM EDTA, 0.2% BSA and 0.1% ascorbic acid), at 1 mM and 2 nM, respectively. A ten-fold dilution series of the ligand was prepared to obtain a dose response curve. For each reaction 100 μl membrane extract, 50 μl ligand, 50 μl peptide or binding buffer containing 1% DMSO and 50 μl of radioligand was added to the V-bottom storage plate, with a total volume of 250 μl per well. Afterwards, the plates were incubated at room temperature for 2 h on a plate shaker (150 rpm). The samples were harvested into filter plates and washed with ice cold washing buffer (75 mM Tris pH 7,4) using the 96-well harvester. The plates were dried for 1 h at 50° C. and then sealed to allow the addition of 30 μl scintillation liquid to each well. Finally, the top of each plate was sealed and the plates were placed in a Wallac MICROBETA® Trilux scintillation counter and incubated for 30 min in the dark.
After the Microbeta scintillation counter, the experimental data was further analyzed using Graphpad Prism 6.0. After normalization of the raw data, a nonlinear regression was used to fit the data in a one-site binding model, with the total binding set as 100% and the non-specific binding between 0 and 5%. The IC50 values, obtained from the competition curves, were used to determine the shift for each peptide, which is the ratio of IC50 of the agonist test compound on the basal conformation (e.g. IC50 β2AR with no peptidomimetic) versus the active conformation (e.g. IC50 β2AR+peptidomimetic) of the receptor. For certain peptide analogues, a biphasic binding curve was observed and therefore fitted by a two-site model (nonlinear regression), resulting in two IC50 values (IC50Hi and IC50Lo) and a FractionHi, the fraction of receptors in the active state.
Synthesised peptidomimetics were evaluated using a radioligand binding assay (RLA) with a human β2AR, using ^3H-dihydroalprenolol (DHA) as the radioligand and increasing concentrations of isoproterenol (agonist) as cold competitor. In particular, the pharmacological stabilization of the receptor in the active conformation was evaluated by performing the radioligand displacement assay (RLA) in the presence and absence of the peptidomimetics. This validated assay quantifies the pharmacological stabilization of the receptor in the active conformation by comparing the affinities of an agonist for the basal versus the active GPCR conformer (Pardon et al. (2018) Angewandte Chemie International Edition 57, 5292-5295). During the assay, the binding affinity of an orthosteric agonist for the receptor, in particular isoproterenol for human β2AR, in presence and absence of the allosteric peptidomimetic was determined. […]

human β2AR [2] = target: human β2AR (human, UniProt P07550 2-365); test: cell-based or functional assay
[3] = Table 6, ratio IC50 β2AR alone / IC50 β2AR + peptidomimetic
[4] = Table 18a overview, averaged values of IC50 shift

Molecule	Shift (averaged) (human β2AR [2])	also measured
Ac-RDIIQR[AzkHLRPra]YELL-OH (Ac-RDIIQR[Azk]HLR[Pra′]YELL-OH; triazole 7-11) [compound 19]	–	Shift (human β2AR [1]; Table 18b overview, averaged values of IC50 shift): 5
Ac-FN[S5CRDS5]IQRMHLRQYELL-OH [compound 26]	–	Shift (human β2AR [1]; [3]): 2; Shift (human β2AR [1]; [4]): 2
Ac-FN[ECRDK]IQRMHLRQYELL-OH [compound 24]	–	Shift (human β2AR [1]; [3]): 7; Shift (human β2AR [1]; [4]): 7
Ac-KKKFN[PraCRDAzk]IQRMHLRQ1-NaIELL-OH (Ac-KKKFN[Pra′]CRD[Azk]IQRMHLRQ[1Nal]ELL-OH; triazole 6-10) [compound 57]	–	Shift (human β2AR [1]; Table 18c overview, averaged values of IC50 shift): 49
Ac-NARRIFNDARDIIQRMHLRQYEWL-OH [compound 83]	9	–
Ac-KKKFN[Pra′]CRD[Azk]IQRMHLRQYELI-OH (triazole 6-10) [compound 47]	64	–
Ac-KFN[Pra′]CRD[Azk]IQRMHLRQYELI-OH (triazole 4-8) [compound 46]	51	–
Ac-KKKFN[Pra′]CRD[Azk]IQRMHLRQY[Aad]LL-OH (triazole 6-10) [compound 53]	38	–
Ac-FN[Pra′]CRD[Azk]IQRMHLRQY[Aad]LL-OH (triazole 3-7) [compound 37]	35	–
Ac-KFN[Pra′]CRD[Azk]IQRMHLRQYEIL-OH (triazole 4-8) [compound 48]	8	–
Ac-FN[Pra′]CRD[Azk]IQRMHLRQYELL-NH2 (triazole 3-7) [compound 36]	1	–
Ac-FNDCRDIIQRMHLRQYEYL-OH [compound 70]	2	–
Ac-KKKRDIIQR[Lys(N3)]HLR[Pra′]YE[Cha]L-OH (triazole 10-14) [compound 65]	63	–
Ac-FN[Pra′]CRD[Azk]IQRMHLRQWELL-OH (triazole 3-7) [compound 30]	9	–
Ac-KFN[Pra′]CRD[Azk]IQRMHLRQYDLL-OH (triazole 4-8) [compound 54]	91	–
Ac-NARRIFNDARDIIQRMHLRQYELL-OH [compound 81]	8	–
Ac-KKKFN[Pra′]CRD[Azk]IQRMHLRQ[2Nal]ELL-OH (triazole 6-10) [compound 58]	39	–

Molecule	Shift (averaged) (human β2AR [2])	also measured
Ac-KKKFN[Pra′]CRD[Azk]IQRMHLRQWELL-OH (triazole 6-10) [compound 56]	53	–
Ac-KKKFN[Pra′]CRD[Azk]IQRMHLRQYDLL-OH (triazole 6-10) [compound 55]	72	–
Ac-FN[Pra′]CRN[Azk]IQRMHLRQYELL-OH (triazole 3-7) [compound 38]	7	–
Ac-FN[Azk]CRD[Pra′]IQRMHLRQYELL-OH (triazole 3-7) [compound 35]	5	–
Ac-FN[Pra′]CRD[Azk]IQRMHLRQYQLL-OH (triazole 3-7) [compound 28]	12	–
Ac-FN[Pra′]CRD[Azk]IQRMHLRQYEIL-OH (triazole 3-7) [compound 32]	2	–
Ac-FN[Pra′]CRD[Azk]IQRMHLRQWELL-OH [compound 29]	4	–
Ac-RDIIQR[Lys(N3)]HLR[Pra′]YE[Cha]L-OH (triazole 7-11) [compound 64]	81	–
Ac-FN[Pra′]CRD[Azk]IQRMHLRQYDLL-OH (triazole 3-7) [compound 39]	52	–
Ac-FN[Pra′]CRD[Azk]IQRMHLRQYELI-OH (triazole 3-7) [compound 34]	29	–
Ac-KKKFN[Pra′]CRD[Azk]IQRMHLRQYEIL-OH (triazole 6-10) [compound 49]	11	–
Ac-FN[Pra′]CRD[Azk]IQRMHLRQ[1Nal]ELL-OH (triazole 3-7) [compound 43]	54	–
Ac-FN[Pra′]CRD[Azk]IQRMHLRQYQLL-OH [compound 27]	4	–
Ac-KKKFN[Pra]CRD[Lys(N3)]IQRMHLRQ[1Nal]ELL-OH (triazole 6-10) [compound 57]	49	–
Ac-KFN[Pra′]CRD[Azk]IQRMHLRQY[Aad]LL-OH (triazole 4-8) [compound 52]	53	–
Ac-FNDARDIIQRMHLRQYELL-OH [compound 75]	5	–
Ac-FNDCRDIIQRMHLRQYEHL-OH [compound 71]	1	–
